Experimental data as given in the Human Domainome abundance scans (Beltran et al. 2025).
± gives the uncertainty stated by the source.

B1: TOX high mobility group box family member 3, residues 256 to 323; numbered along this chain, O15405 (parent)
chain: QKPVSAYALFFRDTQAAIKGQNPNATFGEVSKIVASMWDSLGEEQKQVYKRKTEAAKKEYLKALAAYR

Variants of: B1
Experiment: abundance fitness (aPCA) (normalised: wild type 0, dead -1); higher = more abundant; growth selection in yeast, the domain comes from the species named
Conditions: Homo sapiens

Variant | abundance fitness
QKPVSAYALFFRDTQAAIKGQNPNATFGEVSKIVASMWVSLGEEQKQVYKRKTEAAKKEYLKALAAYR [D39V] | -0.262 ± 0.071
QKPVSAYALFFRDTQAAIKGQNPNATFGEVSKIVASMWWSLGEEQKQVYKRKTEAAKKEYLKALAAYR [D39W] | -0.211 ± 0.074
QKPVSAYALFFRDTQAAIKGQNPNATFGEVSKIVASMWYSLGEEQKQVYKRKTEAAKKEYLKALAAYR [D39Y] | -0.231 ± 0.085
QKPVSAYALFFRDTQAAIKGQNPNATFGEVSKIVASMWDALGEEQKQVYKRKTEAAKKEYLKALAAYR [S40A] | 0.005 ± 0.062
QKPVSAYALFFRDTQAAIKGQNPNATFGEVSKIVASMWDCLGEEQKQVYKRKTEAAKKEYLKALAAYR [S40C] | -0.338 ± 0.15
QKPVSAYALFFRDTQAAIKGQNPNATFGEVSKIVASMWDDLGEEQKQVYKRKTEAAKKEYLKALAAYR [S40D] | -0.223 ± 0.11
QKPVSAYALFFRDTQAAIKGQNPNATFGEVSKIVASMWDELGEEQKQVYKRKTEAAKKEYLKALAAYR [S40E] | 0.01 ± 0.042
QKPVSAYALFFRDTQAAIKGQNPNATFGEVSKIVASMWDGLGEEQKQVYKRKTEAAKKEYLKALAAYR [S40G] | 0.009 ± 0.052
QKPVSAYALFFRDTQAAIKGQNPNATFGEVSKIVASMWDHLGEEQKQVYKRKTEAAKKEYLKALAAYR [S40H] | -0.092 ± 0.12
QKPVSAYALFFRDTQAAIKGQNPNATFGEVSKIVASMWDILGEEQKQVYKRKTEAAKKEYLKALAAYR [S40I] | 0.435 ± 0.11
QKPVSAYALFFRDTQAAIKGQNPNATFGEVSKIVASMWDLLGEEQKQVYKRKTEAAKKEYLKALAAYR [S40L] | -0.258 ± 0.055
QKPVSAYALFFRDTQAAIKGQNPNATFGEVSKIVASMWDMLGEEQKQVYKRKTEAAKKEYLKALAAYR [S40M] | -0.164 ± 0.078
QKPVSAYALFFRDTQAAIKGQNPNATFGEVSKIVASMWDNLGEEQKQVYKRKTEAAKKEYLKALAAYR [S40N] | 0.005 ± 0.1
QKPVSAYALFFRDTQAAIKGQNPNATFGEVSKIVASMWDPLGEEQKQVYKRKTEAAKKEYLKALAAYR [S40P] | -1.01 ± 0.16
QKPVSAYALFFRDTQAAIKGQNPNATFGEVSKIVASMWDQLGEEQKQVYKRKTEAAKKEYLKALAAYR [S40Q] | 0.003 ± 0.069
QKPVSAYALFFRDTQAAIKGQNPNATFGEVSKIVASMWDRLGEEQKQVYKRKTEAAKKEYLKALAAYR [S40R] | -0.004 ± 0.05
QKPVSAYALFFRDTQAAIKGQNPNATFGEVSKIVASMWDTLGEEQKQVYKRKTEAAKKEYLKALAAYR [S40T] | 0.099 ± 0.061
QKPVSAYALFFRDTQAAIKGQNPNATFGEVSKIVASMWDVLGEEQKQVYKRKTEAAKKEYLKALAAYR [S40V] | -0.167 ± 0.058
QKPVSAYALFFRDTQAAIKGQNPNATFGEVSKIVASMWDWLGEEQKQVYKRKTEAAKKEYLKALAAYR [S40W] | -0.838 ± 0.15
QKPVSAYALFFRDTQAAIKGQNPNATFGEVSKIVASMWDYLGEEQKQVYKRKTEAAKKEYLKALAAYR [S40Y] | -0.295 ± 0.094

Variant | abundance fitness
QKPVSAYALFFRDTQAAIKGQNPNATFGEVSKIVASMWDSAGEEQKQVYKRKTEAAKKEYLKALAAYR [L41A] | -0.225 ± 0.068
QKPVSAYALFFRDTQAAIKGQNPNATFGEVSKIVASMWDSCGEEQKQVYKRKTEAAKKEYLKALAAYR [L41C] | -0.592 ± 0.11
QKPVSAYALFFRDTQAAIKGQNPNATFGEVSKIVASMWDSDGEEQKQVYKRKTEAAKKEYLKALAAYR [L41D] | -0.847 ± 0.34
QKPVSAYALFFRDTQAAIKGQNPNATFGEVSKIVASMWDSEGEEQKQVYKRKTEAAKKEYLKALAAYR [L41E] | -0.922 ± 0.16
QKPVSAYALFFRDTQAAIKGQNPNATFGEVSKIVASMWDSFGEEQKQVYKRKTEAAKKEYLKALAAYR [L41F] | -0.507 ± 0.15
QKPVSAYALFFRDTQAAIKGQNPNATFGEVSKIVASMWDSGGEEQKQVYKRKTEAAKKEYLKALAAYR [L41G] | -0.474 ± 0.07
QKPVSAYALFFRDTQAAIKGQNPNATFGEVSKIVASMWDSHGEEQKQVYKRKTEAAKKEYLKALAAYR [L41H] | -0.766 ± 0.19
QKPVSAYALFFRDTQAAIKGQNPNATFGEVSKIVASMWDSIGEEQKQVYKRKTEAAKKEYLKALAAYR [L41I] | -0.187 ± 0.15
QKPVSAYALFFRDTQAAIKGQNPNATFGEVSKIVASMWDSKGEEQKQVYKRKTEAAKKEYLKALAAYR [L41K] | -0.931 ± 0.14
QKPVSAYALFFRDTQAAIKGQNPNATFGEVSKIVASMWDSMGEEQKQVYKRKTEAAKKEYLKALAAYR [L41M] | 0.09 ± 0.079
QKPVSAYALFFRDTQAAIKGQNPNATFGEVSKIVASMWDSNGEEQKQVYKRKTEAAKKEYLKALAAYR [L41N] | -1.16 ± 0.46
QKPVSAYALFFRDTQAAIKGQNPNATFGEVSKIVASMWDSPGEEQKQVYKRKTEAAKKEYLKALAAYR [L41P] | -0.724 ± 0.2
QKPVSAYALFFRDTQAAIKGQNPNATFGEVSKIVASMWDSQGEEQKQVYKRKTEAAKKEYLKALAAYR [L41Q] | -0.718 ± 0.2
QKPVSAYALFFRDTQAAIKGQNPNATFGEVSKIVASMWDSTGEEQKQVYKRKTEAAKKEYLKALAAYR [L41T] | -0.298 ± 0.13
QKPVSAYALFFRDTQAAIKGQNPNATFGEVSKIVASMWDSVGEEQKQVYKRKTEAAKKEYLKALAAYR [L41V] | -0.29 ± 0.086
QKPVSAYALFFRDTQAAIKGQNPNATFGEVSKIVASMWDSWGEEQKQVYKRKTEAAKKEYLKALAAYR [L41W] | -1.05 ± 0.14
QKPVSAYALFFRDTQAAIKGQNPNATFGEVSKIVASMWDSYGEEQKQVYKRKTEAAKKEYLKALAAYR [L41Y] | -0.902 ± 0.23
QKPVSAYALFFRDTQAAIKGQNPNATFGEVSKIVASMWDSLAEEQKQVYKRKTEAAKKEYLKALAAYR [G42A] | -0.088 ± 0.052
QKPVSAYALFFRDTQAAIKGQNPNATFGEVSKIVASMWDSLCEEQKQVYKRKTEAAKKEYLKALAAYR [G42C] | 0.04 ± 0.085
QKPVSAYALFFRDTQAAIKGQNPNATFGEVSKIVASMWDSLDEEQKQVYKRKTEAAKKEYLKALAAYR [G42D] | 0.067 ± 0.085
